Source: publication PMC3603003 (Molecular Plant, 2012)

Assays:
SEC = target: the molecule itself; experiment: SEC
[1] = target: rabbit muscle actin, polymerized (F-actin) (rabbit, UniProt P68135 1-377); experiment: co-sedimentation

B1: NtWLIM2–His (recombinant tobacco LIM protein WLIM2, 6xHis-tagged) (natural protein, Nicotiana tabacum (tobacco), UniProt P93356 1-189, looked up)
chain: MSFIGTQQKCKACEKTVYPVELLSADGVNYHKSCFKCSHCKGTLKLSNFSSMEGVLYCKPHFEQLFKESGNFNKNFQSPAKSAEKLTPELTRSPSKAAGMFSGTQEKCATCGKTAYPLEKVTVENQSYHKTCFKCSHGGCSLSPSNYAALNGILYCKPHFSQLFKEKGSYNHLIKSASMKRPAATVPDS
stoichiometry N (SEC): 2
Kd [1]: 1.83 µM
